Assay results taken from US20100227824A1 (SYMTHERA CANADA, published 2010).
Ends that are not written are not given here. * marks the point of attachment. Biotin = O=C1N[C@H]2[C@H](CS[C@H]2CCCCC(=O)*)N1

B1: Chemokine Binding Peptide 5 (CBP5) (peptide)
peptide: Biotin-LFGNDCE
notes: Synthetic biotinylated peptide, not phage-presented
B2: Chemokine Binding Peptide 10 (CBP10) (peptide)
peptide: Biotin-FFGLNNC

Key:
Experiment in all cases: micro-array, biotinylated peptide on printed CK
Exodus-2 (CCL21) = target: T1, Exodus-2 (CCL21) (UniProt O00585 24-134)
T1 construct: Bought chemokine
T1 sequence (looked up): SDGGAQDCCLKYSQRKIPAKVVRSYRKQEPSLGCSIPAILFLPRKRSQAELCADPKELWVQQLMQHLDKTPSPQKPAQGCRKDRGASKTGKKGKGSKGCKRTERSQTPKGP

Eotaxin (CCL11) = target: T2, Eotaxin (CCL11) (UniProt P51671 24-97)
T2 construct: Bought chemokine
T2 sequence (P51671 24-97 limits assumed): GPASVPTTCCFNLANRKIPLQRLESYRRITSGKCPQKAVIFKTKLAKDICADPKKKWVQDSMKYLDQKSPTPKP

I-309 (CCL1) = target: T3, I-309 (CCL1) (UniProt P22362 23-96, limits assumed)
T3 construct: Bought chemokine
T3 sequence (looked up): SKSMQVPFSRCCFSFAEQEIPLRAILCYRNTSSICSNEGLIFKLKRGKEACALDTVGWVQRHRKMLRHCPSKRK

TECK (CCL25) = target: T4, TECK (CCL25) (UniProt O15444 24-150)
T4 construct: Bought chemokine
T4 sequence (looked up): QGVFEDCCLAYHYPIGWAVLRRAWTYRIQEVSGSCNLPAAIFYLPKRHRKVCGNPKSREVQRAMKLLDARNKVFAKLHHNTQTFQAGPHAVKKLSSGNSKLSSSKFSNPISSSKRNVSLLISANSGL

MIP-3α (CCL20) = target: T5, MIP-3α (CCL20) (UniProt P78556 27-96)
T5 construct: Bought chemokine
T5 sequence (P78556 27-96 limits assumed): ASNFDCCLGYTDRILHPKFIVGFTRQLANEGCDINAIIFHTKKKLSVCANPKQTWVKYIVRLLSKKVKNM

RANTES (CCL5) = target: T6, RANTES (CCL5) (UniProt P13501 24-91)
T6 construct: Bought chemokine
T6 sequence (looked up): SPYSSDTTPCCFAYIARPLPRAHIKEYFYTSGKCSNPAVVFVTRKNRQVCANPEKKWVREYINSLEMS

MCP-1 (CCL2) = target: T7, MCP-1 (CCL2) (UniProt P13500 24-99)
T7 construct: Bought chemokine
T7 sequence (P13500 24-99 limits assumed): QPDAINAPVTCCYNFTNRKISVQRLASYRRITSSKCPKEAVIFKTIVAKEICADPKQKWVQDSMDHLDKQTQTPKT

SDF-1α (CXCL12) = target: T8, SDF-1α (CXCL12) (UniProt P48061-2 22-89)
T8 construct: Alpha isoform of CXCL12; also called SDFα
T8 sequence (P48061 22-89 limits assumed): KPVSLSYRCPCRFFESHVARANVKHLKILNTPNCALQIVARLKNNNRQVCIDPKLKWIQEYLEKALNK

Mig (CXCL9) = target: T9, Mig (CXCL9) (UniProt Q07325 23-125)
T9 construct: Bought chemokine
T9 sequence (looked up): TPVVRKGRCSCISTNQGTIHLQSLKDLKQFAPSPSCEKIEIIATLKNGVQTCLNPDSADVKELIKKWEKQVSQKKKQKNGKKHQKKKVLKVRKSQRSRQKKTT

Eotaxin 3 (CCL26) = target: T10, Eotaxin 3 (CCL26) (UniProt Q9Y258 24-94)
T10 construct: Bought chemokine
T10 sequence (looked up): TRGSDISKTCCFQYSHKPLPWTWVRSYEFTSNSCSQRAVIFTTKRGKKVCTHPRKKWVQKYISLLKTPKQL

MCP-4 (CCL13) = target: T11, MCP-4 (CCL13) (UniProt Q99616 24-98)
T11 construct: Bought chemokine
T11 sequence (Q99616 24-98 limits assumed): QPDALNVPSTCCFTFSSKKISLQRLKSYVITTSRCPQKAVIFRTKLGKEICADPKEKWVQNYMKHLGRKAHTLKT

SDF-1β (CXCL12) = target: T12, SDF-1β (CXCL12) (UniProt P48061 22-93)
T12 construct: Beta isoform of CXCL12; also called SDFβ
T12 sequence (P48061 22-93 limits assumed): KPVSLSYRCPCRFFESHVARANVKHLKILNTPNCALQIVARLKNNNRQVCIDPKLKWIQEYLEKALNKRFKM

Eotaxin 2 (CCL24) = target: T13, Eotaxin 2 (CCL24) (UniProt O00175 27-104, limits assumed)
T13 construct: Bought chemokine
T13 sequence (looked up): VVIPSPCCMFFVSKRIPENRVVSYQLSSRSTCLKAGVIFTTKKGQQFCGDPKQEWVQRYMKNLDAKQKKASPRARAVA

BCA-1 (CXCL13) = target: T14, BCA-1 (CXCL13) (UniProt O43927 23-109)
T14 construct: Bought chemokine
T14 sequence (looked up): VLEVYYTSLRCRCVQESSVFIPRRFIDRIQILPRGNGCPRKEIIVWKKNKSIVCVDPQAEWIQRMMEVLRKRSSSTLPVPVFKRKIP

I-TAC (CXCL11) = target: T15, I-TAC (CXCL11) (UniProt O14625 22-94)
T15 construct: Bought chemokine; also called I-TACK
T15 sequence (looked up): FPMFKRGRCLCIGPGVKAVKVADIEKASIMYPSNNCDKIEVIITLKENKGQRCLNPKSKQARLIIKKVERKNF

Lymphotactin (XCL-1) = target: T16, Lymphotactin (XCL-1) (UniProt P47992 23-114, limits assumed)
T16 construct: Bought chemokine
T16 sequence (looked up): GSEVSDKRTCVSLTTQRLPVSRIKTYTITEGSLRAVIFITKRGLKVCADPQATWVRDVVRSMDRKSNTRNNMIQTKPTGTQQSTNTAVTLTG

GRO-β (CXCL2) = target: T17, GRO-β (CXCL2) (UniProt P19875 35-107)
T17 construct: Bought chemokine
T17 sequence (looked up): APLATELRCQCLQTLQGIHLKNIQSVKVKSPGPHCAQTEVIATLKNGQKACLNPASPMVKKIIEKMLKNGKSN

Binder	binding result (Exodus-2 (CCL21))	Relative Fluorescence Units (RFU) (Eotaxin (CCL11))	binding result (I-309 (CCL1))	binding result (TECK (CCL25))	binding result (MIP-3α (CCL20))	Relative Fluorescence Units (RFU) (RANTES (CCL5))	binding result (MCP-1 (CCL2))	binding result (SDF-1α (CXCL12))	binding result (Mig (CXCL9))	Relative Fluorescence Units (RFU) (Eotaxin 3 (CCL26))	Relative Fluorescence Units (RFU) (MCP-4 (CCL13))	binding result (SDF-1β (CXCL12))	binding result (Eotaxin (CCL11))	binding result (Eotaxin 2 (CCL24))	binding result (BCA-1 (CXCL13))	binding result (I-TAC (CXCL11))	Relative Fluorescence Units (RFU) (MCP-1 (CCL2))	binding result (Lymphotactin (XCL-1))	binding result (Eotaxin 3 (CCL26))	binding result (GRO-β (CXCL2))
B1	binds	> 2500 RFU	binds	binds	binds	> 2500 RFU	binds	binds	binds	> 2500 RFU	> 2500 RFU	binds								
B2			binds	binds				binds				binds	binds	binds	binds	binds	> 600 RFU	binds	binds	binds
